Results from patent US20190008955A1 (SORRENTO THERAPEUTICS, published 2019).
Where a chain is given by its changes, count along the chain named.

Assays:
human CXCR3 [1] = target: T1, human CXCR3 (human, UniProt P49682 1-368); experiment: cell-based or functional assay
T1 sequence (looked up): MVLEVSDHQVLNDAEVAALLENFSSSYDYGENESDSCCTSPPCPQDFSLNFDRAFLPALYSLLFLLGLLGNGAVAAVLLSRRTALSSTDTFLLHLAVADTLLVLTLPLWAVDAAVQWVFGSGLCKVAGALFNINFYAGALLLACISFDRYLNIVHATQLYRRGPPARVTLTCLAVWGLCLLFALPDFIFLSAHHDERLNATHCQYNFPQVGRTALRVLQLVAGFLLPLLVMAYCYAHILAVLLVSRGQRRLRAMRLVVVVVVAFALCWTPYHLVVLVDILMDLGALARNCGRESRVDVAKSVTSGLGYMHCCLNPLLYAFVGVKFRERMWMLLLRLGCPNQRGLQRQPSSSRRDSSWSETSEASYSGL

human CXCR3 [2] = target: T1, human CXCR3; experiment: cell-based or functional assay; remark: listed apart in the source
human CXCR3 [3] = target: T1, human CXCR3; experiment: flow cytometry, antibody titration on CHO-CXCR3 cells
Experimental: In this example, CHO-CXCR3 cells were lifted from culture flasks using non-enzymatic Cell Dissociation Buffer-PBS based (Life Technologies #13151-014). Cells were resuspended in FACS Buffer (2% Fetal Bovine Serum in PBS) at 1×10⁶ cells/ml and 50 μl (0.5×10⁵ cells) were aliquoted into the wells of a 96-well plate. Plated cells were spun down and the supernatant discarded. Cells were resuspended in 30 μl FACS Buffer containing serially diluted concentrations of antibody in triplicate. Plates were incubated for 1 hr at 4° C. and then washed twice with FACS Buffer. Cells were resuspended in 50 μl goat anti-human IgG (γ-chain specific)-PE conjugated secondary antibody (Southern Biotech #2040-09) diluted 1:500 in FACS Buffer. Cells were further incubated for 30 min at 4° C. and then washed 1× with FACS Buffer. The cells were resuspended in a final volume of 30 μl FACS Buffer and analyzed using the Intellicyt Flow Cytometer. Median fluorescence in the FL-2H channel was determined using FlowJo software and EC₅₀ value was determined by plotting the data in GraphPad Prism and analyzing using a variable slope non-linear regression.

murine CXCR3 = target: T2, murine CXCR3 (murine, UniProt O88410 1-367); experiment: flow cytometry, antibody titration on murine B16-F10 cells
T2 construct: whole, on cells; target is the endogenous receptor on B16-F10 cells; also called mur CXCR3
T2 sequence (looked up): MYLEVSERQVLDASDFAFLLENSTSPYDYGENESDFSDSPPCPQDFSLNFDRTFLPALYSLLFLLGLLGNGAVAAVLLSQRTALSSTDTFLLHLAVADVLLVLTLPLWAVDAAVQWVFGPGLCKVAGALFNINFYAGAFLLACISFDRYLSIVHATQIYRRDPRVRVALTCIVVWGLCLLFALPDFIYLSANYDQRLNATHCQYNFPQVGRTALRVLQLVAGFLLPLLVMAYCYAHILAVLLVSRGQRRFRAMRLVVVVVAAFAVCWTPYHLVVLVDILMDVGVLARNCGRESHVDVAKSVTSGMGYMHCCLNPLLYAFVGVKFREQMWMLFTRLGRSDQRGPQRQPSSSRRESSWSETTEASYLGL
Experimental: In this example, murine B16-F10 cells (ATCC, #CRL-6475) were lifted from culture flasks using non-enzymatic Cell Dissociation Buffer-PBS based (Life Technologies #13151-014). Cells were harvested, washed and resuspended in FACS Buffer (2% Fetal Bovine Serum in PBS) at 1×10⁶ cells/ml and 50 μl (0.5×10⁵ cells) were aliquoted into the wells of a 96-well plate. Plated cells were spun down and the supernatant discarded. Cells were resuspended in 30 μl FACS Buffer serially diluted concentrations of antibody in triplicate. Plates were incubated for 1 hr at 4° C. and then washed 2× with FACS Buffer. Cells were resuspended in 50 μl goat anti-human IgG (γ-chain specific)-PE conjugated secondary antibody (Southern Biotech #2040-09) diluted 1:500 in FACS Buffer. Cells were further incubated for 30 min at 4° C. and then washed 1× with FACS Buffer. The cells were resuspended in a final volume of 30 μl FACS Buffer and analyzed using the Intellicyt Flow Cytometer. Median fluorescence in the FL-2H channel was determined using FlowJo software and the EC₅₀ value was determined by plotting the data in GraphPad Prism and analyzing using a variable slope non-linear regression.

B1: 32B12 (antibody, V domains shown)
VH: EVQLVQSGGGLVKSGRSLRLSCTVSGFTFGNSAMSWFRQAPGKGLEWVSSISSSSSYIYYADSVKGRFTISRDNAKNSLYLQMNSLRAEDTAVYYCARDLSGRGYSYLNYWGQGTLVTVSS
VL: SYELTQPPSVSAAPGQKVTISCSGSSSNIGNSYVSWFQQFPGTAPKLVIYENNKRPSGIPDRFSGSKSGTSATLGITGLQTGDEADYYCGTWDSSLSGRVFGGGTKLTVL
notes: Described as a fully human antibody of an IgG class and detected with anti-human IgG (gamma-chain specific); also called anti-CXCR3 antibody 32B12; clone 32B12
Human CXCR3 [1]
  IC50 [nM] in a calcium flux assay using CHO-CXCR3 cells, ligand CXCL9 (200 nM): 37 nM
  IC50 [nM] in a calcium flux assay using CHO-CXCR3 cells, ligand CXCL10 (164 nM): 7 nM
  IC50 [nM] in a calcium flux assay using CHO-CXCR3 cells, ligand CXCL11 (60 nM): 16 nM
Human CXCR3 [2]
  IC50 [nM] in a chemotaxis assay using activated T cells, ligand CXCL9 (30 nM): 0.6 nM
  IC50 [nM] in a chemotaxis assay using activated T cells, ligand CXCL10 (12.5 nM): 0.2 nM
  IC50 [nM] in a chemotaxis assay using activated T cells, ligand CXCL11 (0.3 nM): 0.3 nM
Human CXCR3 [3]
  EC50: 1 nM
Murine CXCR3
  EC50: 25 nM

B2: 3C11 (antibody, V domains shown)
VH: EVQLVESGGGLVQPGGSLRLSCSASGFTFSSYAMHWVRQAPGKGLEYVSAISSNGGSTYYADSVKGRFTISRDNSKNTLYLQMSSLRAEDTAVYYCVKSIAAAGTQYYYYYMDVWGKGTTVTVSS
VL: DIQLTQSPSSLSASVGDRVTITCRASQGIGTYLAWFQQKPGKVPKPLIYAASTLQSGVPSRFSGSGSGADFTLTISSLQPEDVATYYCQKYNSVPQTFGQGTKVEIK
notes: Fully human IgG class
Human CXCR3 [3]
  EC50: 0.6 nM

B3: 3A11 (antibody, V domains shown)
VH: QVQLVQSGGGLVKPGGSLRLSCAASGFTFTSSGMNWVRQAPGKGLEWVAYIFPNGKTLYPESVKGRFIITRDNAEKSLFLEMNNLRAEDMGVYYCAIDLNWGSGYWGQGTLVTVSS
VL: SYVLTQPPSVSKGLRQTATLTCTGNINNVGNVGATWLQQHQGHPPKLLSDRNNNRPSGISERFSASRSGNAASLTITGLQPEDEADYYCSAWDTSLGAWVFGGGTKLTVL
notes: Fully human IgG class
Human CXCR3 [3]
  EC50: 1.2 nM

B4: 2A3 (antibody, V domains shown)
VH: QVQLVQSGAEVKKPGSSVKVACKASGGTFSHSAISWVRQAPGQGLEWIGRTIPTLEMASYAQKFQGRVTISADKSTRTGYMELRDLRSEDTAVYYCSTQTPSYTDHWGQGTLVTVSS
VL: DIVMTQTPLSLPVTLGQPASISCRSSQSLVHSDGNTYLNWFQQRPGQSPRRLIYKVSNRDSGVPDRFSGSGSGTDFTLKISRVEAEDVGVYYCMQGTHWPLTFGGGTKVEIK
notes: Fully human IgG class
Human CXCR3 [3]
  EC50: 11 nM

B5: 3A3 (antibody, V domains shown)
VH: QVQLVQSGAEVKKPGSSVKVSCKASGGTFNRYAFSWVRQAPGQGPELMGRIMPMFDIASYAQKFQGRLTITADKSTSTAYMELSSLRSDDTAVYYCTQVSGDSDYWGPGTLVTVSS
VL: B4 VL with S32N, Q42H, S61F, K79R, T97S
notes: Fully human IgG class
Human CXCR3 [3]
  EC50: 0.5 nM

B6: F7 (antibody, V domains shown)
VH: B4 VH
VL: B4 VL with S26N, N39Y, S81N, L101N, G105Q, V109L
notes: Fully human IgG class; 31
Human CXCR3 [3]
  EC50: 5 nM

B7: 32D12 (antibody, V domains shown)
VH: EVQLLESGGGLVQPGGSQRLSCAASGFTFSSYPMTWVRQAPGKGLEWVSAISDGGSGTYYADSVKGRFTISRDNSKNTLYLQMNSLRAEDTAIYYCARYKMGGSYRGLDDWGQGTLVTVSS
VL: LPVLTQPASVSGSPGQPITISCTGTSGNIGSYNYVSWYQQHPGKAPRLLIYDVSLRPSGISSHFSGSKSGNTASLTISGLQAEDEAEYFCLSWTSDKTYVFGSGTKLTVL
notes: Fully human IgG class
Human CXCR3 [1]
  IC50 [nM] in a calcium flux assay using CHO-CXCR3 cells, ligand CXCL11 (60 nM): 19 nM
Human CXCR3 [2]
  IC50 [nM] in a chemotaxis assay using activated T cells, ligand CXCL9 (30 nM): 2.5 nM
  IC50 [nM] in a chemotaxis assay using activated T cells, ligand CXCL10 (12.5 nM): 0.03 nM
  IC50 [nM] in a chemotaxis assay using activated T cells, ligand CXCL11 (0.3 nM): 3.4 nM
Human CXCR3 [3]
  EC50: 4 nM
